Read-outs that look alike come from different tables or passages of the source. Peptide text beside a SMILES is read from it. * marks the point of attachment. DOTA = O=C(O)CN1CCN(CC(=O)O)CCN(CC(=O)*)CCN(CC(=O)O)CC1
Assay: Biodistribution experiments in normal mice
Format: in vivo, ddY mice
Conditions: for F/B ratio (Femur:blood ratio) / tissue uptake dose at 1 h / tissue uptake dose at 3 h / tissue uptake dose at 10 min: male ddY mice, no pretreatment, mean (SD) for four or five animals; for tissue uptake dose at 1 h / tissue uptake dose at 3 h / tissue uptake dose at 10 min: mouse, in vivo, iv, 37 kBq/100 uL, total radioactivity
Procedure: Experiments with animals were conducted in strict accordance with the Guidelines for the Care and Use of Laboratory Animals of Kanazawa University. The animal experimental protocols used were approved by the Committee on Animal Experimentation of Kanazawa University (Permit Number: AP-132633). Biodistribution experiments were performed after an intravenous administration of each diluted tracer solution (37 kBq/100 µL) to 6-week-old male ddY mice (27–32 g, Japan SLC, Inc., Hamamatsu, Japan). To investigate the effect of an excess amount of bisphosphonate on biodistribution, alendronate (20 mg/kg) was intravenously administered to mice 1 minute before the intravenous injection of ^67Ga-DOTA-(Asp)14 or ^67Ga-DOTA-Bn-SCN-HBP. Four to six mice each were sacrificed by decapitation at 10, 60, and 180 minutes post-injection. Tissues of interest were removed and weighed. Complete left femurs were isolated as representative bone samples, radioactivity was determined using an auto well gamma counter, and counts were corrected for background radiation and physical decay during counting.

O=C(O)C[C@H](NC(=O)[C@H](CC(=O)O)NC(=O)[C@H](CC(=O)O)NC(=O)[C@H](CC(=O)O)NC(=O)[C@H](CC(=O)O)NC(=O)[C@H](CC(=O)O)NC(=O)[C@H](CC(=O)O)NC(=O)[C@H](CC(=O)O)NC(=O)[C@H](CC(=O)O)NC(=O)[C@H](CC(=O)O)NC(=O)[C@H](CC(=O)O)NC(=O)CN1CCN(CC(=O)O)CCN(CC(=O)O)CCN(CC(=O)O)CC1)C(=O)O [67Ga-DOTA-(Asp)11, metal not drawn] ({DOTA}-DDDDDDDDDDD-OH)
F/B ratio (Femur:blood ratio) (10 min after i.v. administration): 8.71 (0.73)
F/B ratio (Femur:blood ratio) (60 min after i.v. administration): 156.07 (45.00)
F/B ratio (Femur:blood ratio) (180 min after i.v. administration): 501.32 (156.89)
tissue uptake dose at 1 h (male, ddY, Blood, 60 min after i.v. administration, read-out: Radioactivity in Blood): 0.11 %ID
tissue uptake dose at 3 h (male, ddY, Blood, 180 min after i.v. administration, read-out: Radioactivity in Blood): 0.03 %ID
tissue uptake dose at 10 min (male, ddY, Bone (complete left femur), 10 min after i.v. administration, read-out: Radioactivity in Bone (Femur)): 13.1 %ID
tissue uptake dose at 1 h (male, ddY, Bone (complete left femur), 60 min after i.v. administration, read-out: Radioactivity in Bone (Femur)): 16.3 %ID
tissue uptake dose at 3 h (male, ddY, Bone (complete left femur), 180 min after i.v. administration, read-out: Radioactivity in Bone (Femur)): 13.9 %ID
tissue uptake dose at 10 min (male, ddY, Brain, 10 min after i.v. administration, read-out: Radioactivity in Brain): 0.05 %ID
tissue uptake dose at 1 h (male, ddY, Brain, 60 min after i.v. administration, read-out: Radioactivity in Brain): 0.02 %ID
tissue uptake dose at 3 h (male, ddY, Brain, 180 min after i.v. administration, read-out: Radioactivity in Brain): 0.01 %ID
tissue uptake dose at 10 min (male, ddY, Heart, 10 min after i.v. administration, read-out: Radioactivity in Heart): 0.55 %ID
tissue uptake dose at 1 h (male, ddY, Heart, 60 min after i.v. administration, read-out: Radioactivity in Heart): 0.08 %ID
tissue uptake dose at 3 h (male, ddY, Heart, 180 min after i.v. administration, read-out: Radioactivity in Heart): 0.02 %ID
tissue uptake dose at 10 min (male, ddY, Kidney, 10 min after i.v. administration, read-out: Radioactivity in Kidney): 16 %ID
tissue uptake dose at 1 h (male, ddY, Kidney, 60 min after i.v. administration, read-out: Radioactivity in Kidney): 1.76 %ID
tissue uptake dose at 3 h (male, ddY, Kidney, 180 min after i.v. administration, read-out: Radioactivity in Kidney): 0.8 %ID
tissue uptake dose at 10 min (male, ddY, Large-intestine, 10 min after i.v. administration, read-out: Radioactivity in Large-intestine): 0.27 %ID
tissue uptake dose at 1 h (male, ddY, Large-intestine, 60 min after i.v. administration, read-out: Radioactivity in Large-intestine): 0.06 %ID
tissue uptake dose at 3 h (male, ddY, Large-intestine, 180 min after i.v. administration, read-out: Radioactivity in Large-intestine): 0.13 %ID
tissue uptake dose at 10 min (male, ddY, Liver, 10 min after i.v. administration, read-out: Radioactivity in Liver): 0.44 %ID
tissue uptake dose at 1 h (male, ddY, Liver, 60 min after i.v. administration, read-out: Radioactivity in Liver): 0.07 %ID
tissue uptake dose at 3 h (male, ddY, Liver, 180 min after i.v. administration, read-out: Radioactivity in Liver): 0.05 %ID
tissue uptake dose at 10 min (male, ddY, Lung, 10 min after i.v. administration, read-out: Radioactivity in Lung): 1.11 %ID
tissue uptake dose at 1 h (male, ddY, Lung, 60 min after i.v. administration, read-out: Radioactivity in Lung): 0.12 %ID
tissue uptake dose at 3 h (male, ddY, Lung, 180 min after i.v. administration, read-out: Radioactivity in Lung): 0.04 %ID
tissue uptake dose at 10 min (male, ddY, Muscle, 10 min after i.v. administration, read-out: Radioactivity in Muscle): 0.48 %ID
tissue uptake dose at 1 h (male, ddY, Muscle, 60 min after i.v. administration, read-out: Radioactivity in Muscle): 0.13 %ID
tissue uptake dose at 3 h (male, ddY, Muscle, 180 min after i.v. administration, read-out: Radioactivity in Muscle): 0.08 %ID
tissue uptake dose at 10 min (male, ddY, Pancreas, 10 min after i.v. administration, read-out: Radioactivity in Pancreas): 0.62 %ID
tissue uptake dose at 1 h (male, ddY, Pancreas, 60 min after i.v. administration, read-out: Radioactivity in Pancreas): 0.07 %ID
tissue uptake dose at 3 h (male, ddY, Pancreas, 180 min after i.v. administration, read-out: Radioactivity in Pancreas): 0.05 %ID
tissue uptake dose at 10 min (male, ddY, Small-intestine, 10 min after i.v. administration, read-out: Radioactivity in Small-intestine): 0.41 %ID
tissue uptake dose at 1 h (male, ddY, Small-intestine, 60 min after i.v. administration, read-out: Radioactivity in Small-intestine): 0.27 %ID
tissue uptake dose at 3 h (male, ddY, Small-intestine, 180 min after i.v. administration, read-out: Radioactivity in Small-intestine): 0.05 %ID
tissue uptake dose at 10 min (male, ddY, Spleen, 10 min after i.v. administration, read-out: Radioactivity in Spleen): 0.31 %ID
tissue uptake dose at 1 h (male, ddY, Spleen, 60 min after i.v. administration, read-out: Radioactivity in Spleen): 0.09 %ID
tissue uptake dose at 3 h (male, ddY, Spleen, 180 min after i.v. administration, read-out: Radioactivity in Spleen): 0.04 %ID
tissue uptake dose at 10 min (male, ddY, Stomach (footnote b), 10 min after i.v. administration, read-out: Radioactivity in Stomach): 0.21 %ID
tissue uptake dose at 1 h (male, ddY, Stomach (footnote b), 60 min after i.v. administration, read-out: Radioactivity in Stomach): 0.18 %ID
tissue uptake dose at 3 h (male, ddY, Stomach (footnote b), 180 min after i.v. administration, read-out: Radioactivity in Stomach): 0.04 %ID
tissue uptake dose at 10 min (Blood, 10 min after i.v. administration (37 kBq/100 µL), gamma counter, read-out: Radioactivity in Blood): 1.51 %ID
accumulation of radioactivity in the femur (in words) (normal mice, i.v.): higher accumulation

Reference: PMC3877283, “Development of Novel Radiogallium-Labeled Bone Imaging Agents Using Oligo-Aspartic Acid Peptides as Carriers” (PLoS ONE, 2013)
